Data taken from EP4541444A1 (Cytiva BioProcess R&D AB, dated 2025).

Target: T1, human serum albumin (human, UniProt P02768 25-609)
T1 construct: also called HSA
Assay: SPR (Biacore), ligand immobilized on chip

binding result: binds
B1: scFvHSA (scFv)
scFv: EVQLLESGGGLVQPGGSLRLSCAVSGIDLSNYAINWVRQAPGKGLEWIGIIWASGTTFYATWAKGRFTISRDNSKNTVYLQMNSLRAEDTAVYYCARTVPGYSTAPYFDLWGQGTLVTVSSGGGGSGGGGSGGGGSDIQMTQSPSSVSASVGDRVTITCQSSPSVWSNFLSWYQQKPGKAPKLLIYEASKLTSGVPSRFSGSGSGTDFTLTISSLQPEDFATYYCGGGYSSISDTTFGGGTKVEIKRTVQASGSHHHHHH
notes: also called anti-HSA scFv
